Experimental findings from PMC7508878 are described below.

For test [1], the target named is major capsid protein (MCP) of varicella-zoster virus (varicella-zoster virus (strain vOka)) (UniProt P09245). Put plainly: cryo-EM structure; VZV A-capsids purified from infected MRC-5 cells, in 1x PBS; single-particle reconstruction with block-based (localized) reconstruction of an asymmetric unit, 3.7 Å.
The target in test [2] is Tri1 protein of the varicella-zoster virus heterotriplex (varicella-zoster virus (strain vOka)). Described as above.

Several values for one entry are separate records, joined by “and”; a condition that tells them apart may be missing. Equal values may be shown once.

By stoichiometry N is commonly meant a count of units in the complex or per binding partner. “major capsid protein (MCP) of varicella-zoster virus (from UniProt P09245 1-1396) (natural protein)”: in test [1], the stoichiometry N is 5 and 6.

With “Tri2 protein of the varicella-zoster virus heterotriplex (natural protein)”, the stoichiometry N (Tri2 per Tri1) in test [2] is 2.
